Test [1] deals with T1, HA-BimEL (S94/98A) mutant (human, UniProt O43521 1-198).
T1 construct: HA-tagged, expressed in HEK293
The test can be described thus: co-immunoprecipitation with HA resin from transfected HEK293 cells (FIG. 2A). On the procedure: Twenty-four hours after transfection, cells were treated for 3 hours with PMA and MG 132. Whole cell extracts (WCE) were subjected to immunoprecipitation using HA resin (α-HA) followed by immunoblotting with indicated antibodies.

The target in test [2] is T2, human BimEL (Bcl-2-Interacting Mediator of cell death, Extra Long isoform) (human, UniProt O43521 1-198, phosphorylated in cells after PMA treatment (Ser69, Ser93, Ser94, Ser98 as the filing reports)).
T2 construct: 198 aa protein, GenBank AAC39593; also called HA-BimEL WT; wild-type BimEL
Kind of test: co-immunoprecipitation with FLAG resin from HEK293 cells expressing FLAG-tagged F-box proteins, immunoblot for BimEL. The protocol:
For these binding studies, HEK293 cells were transfected with the indicated FLAG-tagged Fbw family F-box protein constructs (in FIG. 1). Twenty-four hours after transfection cells were treated for 3 hours with PMA (20 nM) and the proteasome inhibitor MG132 (10 μM) then harvested and lysed. Whole cell extracts (WCE) were subjected to immunoprecipitation using FLAG resin (α-FLAG), followed by immunoblotting with indicated antibodies (EV: empty vector).

The results in this text go back to patent publication US20090318535A1 (NEW YORK UNIVERSITY, published 2009).

B1: human β-TrCP1 (beta-transducin repeat containing protein 1) (other)
chain: MDPAEAVLQEKALKFMCSMPRSLWLGCSSLADSMPSLRCLYNPGTGALTAFQNSSEREDCNNGEPPRKIIPEKNSLRQTYNSCARLCLNQETVCLASTAMKTENCVAKTKLANGTSSMIVPKQRKLSASYEKEKELCVKYFEQWSESDQVEFVEHLISQMCHYQHGHINSYLKPMLQRDFITALPARGLDHIAENILSYLDAKSLCAAELVCKEWYRVTSDGMLWKKLIERMVRTDSLWRGLAERRGWGQYLFKNKPPDGNAPPNSFYRALYPKIIQDIETIESNWRCGRHSLQRIHCRSETSKGVYCLQYDDQKIVSGLRDNTIKIWDKNTLECKRILTGHTGSVLCLQYDERVIITGSSDSTVRVWDVNTGEMLNTLIHHCEAVLHLRFNNGMMVTCSKDRSIAVWDMASPTDITLRRVLVGHRAAVNVVDFDDKYIVSASGDRTIKVWNTSTCEFVRTLNGHKRGIACLQYRDRLVVSGSSDNTIRLWDIECGACLRVLEGHEELVRCIRFDNKRIVSGAYDGKIKVWDLVAALDPRAPAGTLCLRTLVEHSGRVFRLQFDEFQIVSSSHDDTILIWDFLNDPAAQAEPPRSPSRTYTYISR
notes: also called Fbp1
With B1, the binding result in test [1] is recorded as “no binding”; in test [2], “binds”.
